Target: recombinant human netrin‐1 (R&D), on HIS1K biosensors (human) (UniProt O95631)
Test: BLI; netrin-1 on HIS1K biosensors; m-Laminin-I at 3.12-100 nM; 30°C, 1,000 rpm; PBS, 0.02% Tween-20, 0.1% BSA; 5 min association, 5 min dissociation

mouse laminin‐I (complex)
Kd: 29.5 nM

— PMC10086585
